# From PMC4021362
# Tested on: Hydra Myc2 p15;Hydra Max p22 (Hydra magnipapillata?;Hydra magnipapillata?)
# Assay: EMSA
# Settings: equimolar mixture, heterodimer; EMSA with 0.3 ng (25,000 cpm) 32P-labeled 18-mer dsDNA; binding buffer, salt, pH and temperature not given in the material
substance,measurement,value
E-box USF 18-mer,Kd,17.4 nM
